Measurements from patent US20220089766A1 (published 2022).
Each block holds one binder with its values, some of them ahead of it.

How the values were obtained:
[1] = target: T1, Monomeric human CD38 with a c-terminal myc-myc-hexahistidine tag (hCD38.mmH) (human, UniProt P28907 43-300); assay: SPR (Biacore 3000, 25 C); bsAb captured on anti-human Fc, hCD38.mmH injected; 1:1 fit
T1 construct: also called bsAb3305; not shown: C-terminal myc-myc-hexahistidine tag

[2] = target: T2, human CD38 on target cells (HEK293/hCD20/hCD38, MOLP8, NALM-6, NALM-6/hPD-L1) (human, UniProt P28907 1-300); assay: cell-based or functional assay
[3] = target: T3, Dimeric human CD28 with a c-terminal mouse Fc tag (hCD28.mFc) (human); assay: SPR (Biacore, 25 C); group summary of Table 9
T3 construct: also called bsAb2012; Human CD28 extracellular domain (N19-P152).mFc
Experimental: (§1) For CD28 kinetic determinations, SPR experiments were performed using a Biacore 3000 instrument at 25° C. Dimeric human CD28 with a c-terminal mouse Fc tag (hCD28.mFc, bsAb2012) were captured for 37 seconds at a flow rate of 8 uL/min on a CM5 anti-mouseFc-(GE)-coupled surface. Approximately 150 RU of hCD28.mFc were captured. […] Dissociation was measured for 10 minutes. The KD and t_{1/2} were calculated by fitting the double-referenced sensorgrams to a 1:1 binding model.

[4] = target: T2, human CD38 on target cells …; assay: cell-based or functional assay; remark: listed apart in the source
[5] = target: T3, Dimeric human CD28 with a c-terminal …; assay: SPR (Biacore 3000, 25 C); hCD28.mFc captured on anti-mouse Fc, bsAb injected; 1:1 fit
Experimental: as §1

[6] = target: T2, human CD38 on target cells …; assay: cell-based or functional assay; remark: listed apart in the source
[7] = target: T1, Monomeric human CD38 with a c-terminal …; assay: SPR (Biacore, 25 C); group summary of Table 8
Experimental: For CD38 kinetic determinations, SPR experiments were performed using a Biacore 3000 instrument at 25° C. Antibodies were captured for 37 seconds at a flow rate of 8 uL/min on a CM5 anti-humanFc-(bsAb2567)-coupled surface. Approximately 230 RU of each antibody were captured. […] Dissociation was measured for 10 minutes. The KD and t½ were calculated by fitting the double-referenced sensorgrams to a 1:1 binding model.

[8] = target: T2, human CD38 on target cells …; assay: cell-based or functional assay; remark: listed apart in the source

- Kd [1]: 7.08 nM
- koff [1]: 0.000748 s⁻¹
- kon [1]: 106000 M⁻¹ s⁻¹
- t½ [1]: 15.4 min
- IFNγ release EC50; T cells + HEK293/hCD20/hCD38, + TAAxCD3 (bsAb1979) [2]: 0.294 nM
- IFNγ release EC50; T cells + MOLP8, + TAAxCD3 (bsAb5458) [2]: 0.748 nM
- Kd [3]: < 26 nM
- IL2 release EC50; T cells + NALM-6, + Cemiplimab [4]: 2.44 nM
- IL2 release EC50; T cells + NALM-6, + IgG4^P [4]: 1.68 nM
- IL2 release EC50; T cells + NALM-6/hPD-L1, + Cemiplimab [4]: 4.39 nM
- IL2 release EC50; T cells + NALM-6/hPD-L1, + IgG4^P [4]: 2.64 nM
- Kd [5]: 25.9 nM
- koff [5]: 0.00149 s⁻¹
- kon [5]: 57400 M⁻¹ s⁻¹
- t½ [5]: 7.8 min
- T-cell proliferation EC50; T cells + HEK293/hCD20/hCD38, + TAAxCD3 (bsAb1979) [6]: 0.143 nM
- T-cell proliferation EC50; T cells + MOLP8, + IgG4^P isotype control [6]: 0.467 nM
- Kd [7]: < 10 nM
- IL2 release EC50; T cells + HEK293/hCD20/hCD38, + TAAxCD3 (bsAb1979) [8]: 0.199 nM
- IL2 release EC50; T cells + MOLP8, + IgG4^P isotype control [8]: 0.653 nM
- IL2 release EC50; T cells + MOLP8, + TAAxCD3 (bsAb5458) [8]: 1.02 nM
B1: bsAb6031 (bispecific antibody, human IgG4 S228P, kappa)
heavy 1: EVQLVESGGGLVQPGRSLRLSCAASGFTFDDYAMHWVRQAPGKGLEWVSGISWKSDNIGYADSVKGRFTISRDNAKNSLYLQMNSLRAEDTALYYCAKALGGWKFDYYYGMDVWGQGTTVTVSSASTKGPSVFPLAPCSRSTSESTAALGCLVKDYFPEPVTVSWNSGALTSGVHTFPAVLQSSGLYSLSSVVTVPSSSLGTKTYTCNVDHKPSNTKVDKRVESKYGPPCPPCPAPPVAGPSVFLFPPKPKDTLMISRTPEVTCVVVDVSQEDPEVQFNWYVDGVEVHNAKTKPREEQFNSTYRVVSVLTVLHQDWLNGKEYKCKVSNKGLPSSIEKTISKAKGQPREPQVYTLPPSQEEMTKNQVSLTCLVKGFYPSDIAVEWESNGQPENNYKTTPPVLDSDGSFFLYSRLTVDKSRWQEGNVFSCSVMHEALHNHYTQKSLSLSLGK
heavy 2: EVQLVESGGGLVQPGGSLRLSCAASGFTFSRNNMHWVRQAPGKGLEYVSGISSNGGRTYYADSVKGRFTISRDNSKNTLYLQMGGLRAADMAVYFCTRDDELLSFDYWGQGTLVTVSSASTKGPSVFPLAPCSRSTSESTAALGCLVKDYFPEPVTVSWNSGALTSGVHTFPAVLQSSGLYSLSSVVTVPSSSLGTKTYTCNVDHKPSNTKVDKRVESKYGPPCPPCPAPPVAGPSVFLFPPKPKDTLMISRTPEVTCVVVDVSQEDPEVQFNWYVDGVEVHNAKTKPREEQFNSTYRVVSVLTVLHQDWLNGKEYKCKVSNKGLPSSIEKTISKAKGQPREPQVYTLPPSQEEMTKNQVSLTCLVKGFYPSDIAVEWESNGQPENNYKTTPPVLDSDGSFFLYSRLTVDKSRWQEGNVFSCSVMHEALHNRFTQKSLSLSPGK
light: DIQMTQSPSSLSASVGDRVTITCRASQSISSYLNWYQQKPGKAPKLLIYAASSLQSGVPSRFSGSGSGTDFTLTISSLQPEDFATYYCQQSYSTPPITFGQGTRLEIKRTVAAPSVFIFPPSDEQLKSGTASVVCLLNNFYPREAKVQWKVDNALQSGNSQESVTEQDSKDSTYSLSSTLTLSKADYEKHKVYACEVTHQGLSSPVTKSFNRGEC
notes: also called anti-CD38×CD28 bispecific antibody

- IFNγ release EC50; T cells + HEK293/hCD20/hCD38, + TAAxCD3 (bsAb1979) [2]: 0.123 nM
- IFNγ release EC50; T cells + MOLP8, + TAAxCD3 (bsAb5458) [2]: 0.00424 nM
- IL2 release EC50; T cells + NALM-6, + Cemiplimab [4]: 0.0981 nM
- IL2 release EC50; T cells + NALM-6/hPD-L1, + Cemiplimab [4]: 0.143 nM
- IL2 release EC50; T cells + NALM-6/hPD-L1, + IgG4^P [4]: 0.169 nM
- T-cell proliferation EC50; T cells + HEK293/hCD20/hCD38, + IgG4^P isotype control [6]: 45.6 nM
- T-cell proliferation EC50; T cells + HEK293/hCD20/hCD38, + TAAxCD3 (bsAb1979) [6]: 0.000894 nM
- IL2 release EC50; T cells + HEK293/hCD20/hCD38, + IgG4^P isotype control [8]: 41.4 nM
- IL2 release EC50; T cells + HEK293/hCD20/hCD38, + TAAxCD3 (bsAb1979) [8]: 0.00502 nM
- IL2 release EC50; T cells + MOLP8, + IgG4^P isotype control [8]: 0.00971 nM
B2: bsAb7945 (bispecific antibody, human IgG4 S228P, kappa)
heavy 1: QVQLVQSGAEVKKPGSSVKVSCKASGGPFRSSSFSWVRQAPGQGLEWMGGIIPILGKTNYAQKFQGRITIVTDESTTTVYMELSSLRSEDTAVFYCVRGSSLFDYWGQGTLVTVSSASTKGPSVFPLAPCSRSTSESTAALGCLVKDYFPEPVTVSWNSGALTSGVHTFPAVLQSSGLYSLSSVVTVPSSSLGTKTYTCNVDHKPSNTKVDKRVESKYGPPCPPCPAPPVAGPSVFLFPPKPKDTLMISRTPEVTCVVVDVSQEDPEVQFNWYVDGVEVHNAKTKPREEQFNSTYRVVSVLTVLHQDWLNGKEYKCKVSNKGLPSSIEKTISKAKGQPREPQVYTLPPSQEEMTKNQVSLTCLVKGFYPSDIAVEWESNGQPENNYKTTPPVLDSDGSFFLYSRLTVDKSRWQEGNVFSCSVMHEALHNHYTQKSLSLSLGK
heavy 2: QVQLQESGPGLVKPSETLSLTCTVSGGSISSYYWSWIRQPPGKGLEWIGYIYYSGITHYNPSLKSRVTISVDTSKIQFSLKLSSVTAADTAVYYCARWGVRRDYYYYGMDVWGQGTTVTVSSASTKGPSVFPLAPCSRSTSESTAALGCLVKDYFPEPVTVSWNSGALTSGVHTFPAVLQSSGLYSLSSVVTVPSSSLGTKTYTCNVDHKPSNTKVDKRVESKYGPPCPPCPAPPVAGPSVFLFPPKPKDTLMISRTPEVTCVVVDVSQEDPEVQFNWYVDGVEVHNAKTKPREEQFNSTYRVVSVLTVLHQDWLNGKEYKCKVSNKGLPSSIEKTISKAKGQPREPQVYTLPPSQEEMTKNQVSLTCLVKGFYPSDIAVEWESNGQPENNYKTTPPVLDSDGSFFLYSRLTVDKSRWQEGNVFSCSVMHEALHNRFTQKSLSLSPGK
light: not shown
